Laboratory results reported in patent publication US20080260713.

Biological target: T1, human regulatory myosin light chain, his-tagged
T1 chain: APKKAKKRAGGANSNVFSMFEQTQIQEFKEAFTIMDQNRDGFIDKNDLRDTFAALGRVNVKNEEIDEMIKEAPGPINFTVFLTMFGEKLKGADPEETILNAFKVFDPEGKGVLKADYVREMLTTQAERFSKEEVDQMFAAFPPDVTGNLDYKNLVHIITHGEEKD

B1: recombinant human neukinase, His-tagged (protein)
chain: MSGTSKESLGHGGLPGLGKTCLTTMDTKLNMLNEKVDQLLHFQEDVTEKLQSMCRDMGHLERGLHRLEASRAPGPGGADGVPHIDTQAGWPEVLELVRAMQQDAAQHGARLEALFRMVAAVDRAIALVGATFQKSKVADFLMQGRVPWRRGSPGDSPEENKERVEEEGGKPKHVLSTSGLQSDAREPGEESQKADVLEGTAERLPPIRASGLGADPAQAVVSPGQGDGVPGPAQAFPGHLPLPTKVEAKAPETPSENLRTGLELAPAPGRVNVVSPSLEVAPGAGQGASSSRPDPEPLEEGTRLTPGPGPQCPGPPGLPAQARATHSGGETPPRISIHIQEMDTPGEMLMTGRGSLGPTLTTEAPAAAQPGKQGPPGTGRCLQAPGTEPGEQTPEGARELSPLQESSSPGGVKAEEEQRAGAEPGTRPSLARSDDNDHEVGALGLQQGKSPGAGNPEPEQDCAARAPVRAEAVRRMPPGAEAGSVVLDDSPAPPAPFEHRVVSVKETSISAGYEVCQHEVLGGGRFGQVHRCTEKSTGLPLAAKIIKVKSAKDREDVKNEINIMNQLSHVNLIQLYDAFESKHSCTLVMEYVDGGELFDRITDEKYHLTELDVVLFTRQICEGVHYLHQHYILHLDLKPENILCVNQTGHQIKIIDFGLARRYKPREKLKVNFGTPEFLAPEVVNYEFVSFPTDMWSVGVITYMLLSGLSPFLGETDAETMNFIVNCSWDFDADTFEGLSEEAKDFVSRLLVKEKSCRMSATQCLKHEWLNNLPAKASRSKTRLKSQLLLQKYIAQRKWKKHFYVVTAANRLRKFPTSP
  rate of decrease of NADH absorbance at 340 nm (PK/LDH-coupled assay; 90 uM RLC, 1 uM CaM, 0.3 uM CaCl2, 100 nM neukinase): ΔOD/min/nmol nukinase=0.0152/min/nmol neukinase
